# Data taken from the RNAGym collection of RNA variant scans (doi:10.7554/elife.90254).
# B1: OR4K15 (parent)
# chain: GUUAACGGUCAUAGGCCAUGGAAACUAGGAGCACCAUUUCGCUGCCAGUGAAGAAAUGAACAAAGAAAAUCUGGGCCAGGCAGGCAUCAAAAGAAAUAGUCUUGCGCUCAACCAGAAAGUCUGUAAUCAUUUUAAGGGUA
# Variants of: B1
# Test: self-cleavage, relative activity (ratio to wild type); higher = more cleavage; in vitro, sequencing; the parent is a self-cleaving ribozyme
row,Variant,self-cleavage
1,GUUAACGGUCAUAGGCCAUAGAAACUAGGAGCACCAUUUCGCUGCCAGUGAAGAAAUGAACAAAGAAAAUCAGGGCCAGGCAGGCAUCAAAAGAAAUAGUCUUGCGCUCAACCAGAAAGUCUGUAAUCAUUUUAAGGGUA [G20A U72A],0.06
2,GUUAACGGUCAUAGGCCAUAGAAACUAGGAGCACCAUUUCGCUGCCAGUGAAGAAAUGAACAAAGAAAAUCUGGGCCAGGCAGGCAUCAGAAGAAAUAGUCUUGCGCUCAACCAGAAAGUCUGUAAUCAUUUUAAGGGUA [G20A A90G],0.76
3,GUUAACGGUCAUAGGCCAUAGAAACUAGGAGCACCAUUUCGCUGCCAGUGAAGAAAUGAACAAAGAAAAUCUGGGCCAGGCAGGCAUCAAAAGAAAUAGUCUUGCGCUCAACCAGAAAGUUUGUAAUCAUUUUAAGGGUA [G20A C121U],2.49
4,GUUAACGGUCAUAGGCCAUCGAAACUAGGAGCACCAUUUCGCUGCCAGUGAAGAAAUGAACAAAGAAAAUCUGGGCCAGGCAGGCAUCAAAAGAAAUAGUCUUGCGCUCAACCAGAAAGUCUGAAAUCAUUUUAAGGGUA [G20C U124A],0.67
5,GUUAACGGUCAUAGGCCAUAGAAACUAGGAGCACCAUUUCGCUGCCAGUGAAGAAAUGAACAAAGAAAAUCUGGGCCAGGCAGGCAUCAAAAGAAAUAGUCUUGCGCUCAACCAGGAAGUCUGUAAUCAUUUUAAGGGUA [G20A A116G],0.47
6,GUUAACGGUCAUAGGCCAUAGAAACUAGGAGCACCAUUUCGCUGCCAGUGAAGAAAUGAACAAAGAAAAUCUGGGCCAGGCAGGCAUCAAAAGAAAUAGUCUUGCGCUCUACCAGAAAGUCUGUAAUCAUUUUAAGGGUA [G20A A110U],1.39
7,GUUAACGGUCAUAGGCCAUAGAAACUAGGAGCACCAUUUCGCUGCCAGUGAAGAAAUGAACAAAGAAAAUCUGGGCCGGGCAGGCAUCAAAAGAAAUAGUCUUGCGCUCAACCAGAAAGUCUGUAAUCAUUUUAAGGGUA [G20A A78G],0.3
8,GUUAACGGUCAUAGGCCAUAGAAACUAGGAGCACCAUUUCGCUGCCAGUGAAGAAAUGAACAAAGAAAAUCUGGGCCAGGCAGGCAUCAAAAGAAAUAGUCUUGCGCUCAACCAGAAAGUCUGUAAUCAUUCUAAGGGUA [G20A U132C],1.92
9,GUUAACGGUCAUAGGCCAUUGAAACUAGGAGCACCAUUUCGCUGCCAGUGAAGAAAUGAACAAAGAGAAUCUGGGCCAGGCAGGCAUCAAAAGAAAUAGUCUUGCGCUCAACCAGAAAGUCUGUAAUCAUUUUAAGGGUA [G20U A67G],1.24
10,GUUAACGGUCAUAGGCCAUAGAAACUAGGAGCACCAUCUCGCUGCCAGUGAAGAAAUGAACAAAGAAAAUCUGGGCCAGGCAGGCAUCAAAAGAAAUAGUCUUGCGCUCAACCAGAAAGUCUGUAAUCAUUUUAAGGGUA [G20A U38C],1.72
11,GUUAACGGUCAUAGGCCAUAGAAACUAGGAGCACCAUGUCGCUGCCAGUGAAGAAAUGAACAAAGAAAAUCUGGGCCAGGCAGGCAUCAAAAGAAAUAGUCUUGCGCUCAACCAGAAAGUCUGUAAUCAUUUUAAGGGUA [G20A U38G],1.25
12,GUUAACGGUCAUAGGCCAUUGAAACUAGGAGCACCAUUUCGCUGCCAGUGAAGAAAUGAACAAAGAAAAUCUGGGCCAGGCUGGCAUCAAAAGAAAUAGUCUUGCGCUCAACCAGAAAGUCUGUAAUCAUUUUAAGGGUA [G20U A82U],0.2
13,GUUAACGGUCAUAGGCCAUCGAAACUAGGAGCACCGUUUCGCUGCCAGUGAAGAAAUGAACAAAGAAAAUCUGGGCCAGGCAGGCAUCAAAAGAAAUAGUCUUGCGCUCAACCAGAAAGUCUGUAAUCAUUUUAAGGGUA [G20C A36G],2.25
14,GUUAACGGUCAUAGGCCAUAGAAACUAGGAGCACCACUUCGCUGCCAGUGAAGAAAUGAACAAAGAAAAUCUGGGCCAGGCAGGCAUCAAAAGAAAUAGUCUUGCGCUCAACCAGAAAGUCUGUAAUCAUUUUAAGGGUA [G20A U37C],0.64
15,GUUAACGGUCAUAGGCCAUUGAAACUAGGAGCACCAUUUCGCUGCCAGUGAAGAAAUGAACAAAGAAAAUCUGGGCCGGGCAGGCAUCAAAAGAAAUAGUCUUGCGCUCAACCAGAAAGUCUGUAAUCAUUUUAAGGGUA [G20U A78G],0.26
16,GUUAACGGUCAUAGGCCAUAGAAACUAGGAGCACCAUUUCGCUGCCAGCGAAGAAAUGAACAAAGAAAAUCUGGGCCAGGCAGGCAUCAAAAGAAAUAGUCUUGCGCUCAACCAGAAAGUCUGUAAUCAUUUUAAGGGUA [G20A U49C],1.6
17,GUUAACGGUCAUAGGCCAUUGAAACUAGGAGCACCAUUUCGCUGCCAGUGAAGAAAUGAACAAAGAAGAUCUGGGCCAGGCAGGCAUCAAAAGAAAUAGUCUUGCGCUCAACCAGAAAGUCUGUAAUCAUUUUAAGGGUA [G20U A68G],1.59
18,GUUAACGGUCAUAGGCCAUUGAAACUAGGAGCUCCAUUUCGCUGCCAGUGAAGAAAUGAACAAAGAAAAUCUGGGCCAGGCAGGCAUCAAAAGAAAUAGUCUUGCGCUCAACCAGAAAGUCUGUAAUCAUUUUAAGGGUA [G20U A33U],0.94
19,GUUAACGGUCAUAGGCCAUAGAAACUAGGAGCACCAUUUCGCUGCCAGUGAAGAAAUGAACAAAGAAAAUCUGGGCCAGGCAGGCAUCAAAAGAAAUAGUCUUGCGCUCAACCAGAAAGUCUGUAGUCAUUUUAAGGGUA [G20A A126G],1.02
20,GUUAACGGUCAUAGGCCAUAGAAACUAGGAGCACCAUUUCGCUGCCAGUGAAGAAAUGAACAAAGAAAAUCUGGGCCAGGCAGGCAUCAAAAGAAAUAGUCCUGCGCUCAACCAGAAAGUCUGUAAUCAUUUUAAGGGUA [G20A U102C],2.1
21,GUUAACGGUCAUAGGCCAUAGAAACUAGGAGCACCAUUUCGCUGCCAGUGAAGAAAUGAACAAAGAAAAUCUGGGCCAGGCAGGCAUCAAAAGAAAAAGUCUUGCGCUCAACCAGAAAGUCUGUAAUCAUUUUAAGGGUA [G20A U97A],2.67
